Results reported in US7105164B1, “HIV-specific cytotoxic T-cell responses” (priority 1999, dated 2006).
“Also recorded” adds a separate entry of the source.

Target: T1, HLA-A2 on T2 cells (Homo sapiens, UniProt P04439, D140Y/D185E/D98H/E176V/E277Q/G131W/G231S/I119V/I121R/I166T/I218V/L300P/L318F/N151K/N90K/P208A/P217A/Q86G/Q94H/R138H/R169H/T345S)
T1 construct: T2 cell line expressing the HLA-A2 molecules was obtained from Dr Peter Creswell; endogenous in cells; host or cells: T2 cell line (TAP-deficient human cell line)
Experiment: in vitro HLA-A2 stabilization (peptide-induced MHC class 1 assembly assay, FACS) on T2 cells
Type: cell-based
Conditions: FIG. 1; for binding to and stabilization of membrane-bound HLA-A2 (shift of fluorescent peak): BB7.2 antibody, FACS
Protocol: Location of the potential CTL containing motifs of the HIV-1 (LAI) Rev protein has been predicted by the reported peptide-binding motif algorithms. […] The ability of the peptides containing these motifs to bind and stabilize membrane-bound HLA-A2 molecule was assessed using the T2 cell line. The cell line has been well documented to have defective TAP transporter function resulting in the majority of the intracellularly generated peptides being unable to be transported into the endoplasmic reticulum to associate with the newly synthesized HLA class 1 molecules, i.e. HLA-A2 (see references 4, 5). […] Upon interaction with suitable peptides introduced exogenously, the stability of the HLA-A2 molecules can be restored.
T2 cell line expressing the HLA-A2 molecules was obtained from Dr Peter Creswell at the Howard Hughes Research Institute of Yale University. The cells were propagated in Iscove's complete medium (Iscove's medium supplemented with 10% heat-inactivated bovine serum, 120.0 units per ml of penicilin G sodium, 120 μg per ml of streptomycin sulphate, and 0.35 mg per ml of L-glutamine). The ability of individual 8 to 13 mer peptides, prepared as described in Example 1 and identified in Table 1, to bind and modulate the stability of the A2 molecules on T2 cells was determined using a peptide-induced MHC class 1 assembly assay, which was modified from a protocol described by Yuping Deng et al. (ref. 6).
In essence, 1×10^6 T2 cells were incubated with a specified concentration of the test peptide in 250.0 μl of Iscove's serum-free medium (Iscove's medium supplemented with 120.0 units per ml of penicillin G sodium, 120.0 μg per ml of streptomycin sulphate and 0.35 mg per ml of L-glutamine) in a sterile Eppendorf tube at 37° C. overnight. The cells were then incubated on ice for 30 min before 1.0 ml of Iscove's complete medium supplemented with 5.0 μg per ml of brefeldin A, 12.5 μg per ml of anisomycin and 5.0 μg per ml of cyclohexamide was added. The samples were then incubated for 3.0 hr in a 37° C. CO2 incubator.
In the presence of the drugs, further protein synthesis and intracellular delivery of HLA-A2 molecules to the cell surface are inhibited, and de-stabilization of the conformation of the membrane-bound class 1 molecules at the physiological temperature occurs.
The cells were then washed twice with ice-cold PBA (a buffer containing 0.9% sodium chloride, 0.5% bovine serum albumin and 0.02% sodium azide). 100.0 μl of PBA containing 5.0 μg of a conformation-sensitive HLA-A2-specific mouse monoclonal antibody, BB7.2 (ref. 7), was then added to each test sample. The reaction was allowed to take place on ice for 45 min. The cells were then washed three times with ice-cold PBA.
The binding of BB7.2 was then detected by adding […] containing 1.0 μg of goat anti-mouse IgG F(ab′) fluorescein (FITC) conjugate to each cell sample. After 30 min incubation on ice, the cells were washed twice with PBA, and twice again with PBS, pH 7.2. Cells were fixed immediately after washing was completed by adding 100.0 μl of 1.0% paraformaldehyde to the cell pellet. The cells were gently resuspended and were FACS analysed usually within three days after the experiments were completed.
The fluorescence index, which is an indicator for increased density of membrane-bound A2 molecules, was calculated by dividing the mean fluorescence of an experimental sample (peptide treated T2 cells) by the mean fluorescence of the control sample (T2 cells not treated with peptide).

Sequence	binding to and stabilization of membrane-bound HLA-A2 (shift of fluorescent peak)	order of potency by comparison of fluorescence indices
ILVESPAVL (Human immunodeficiency virus type 1) [CLP-72]	bound to HLA-A2 on T2 cells; also recorded: able to bind and stabilize; also recorded: capable of binding to HLA-A2 on T2 cells	CLP-177>CLP-72>CLP-178>CLP-182
PLQLPPLERLIL [CLP-182]	bound to HLA-A2 on T2 cells; also recorded: able to bind and stabilize; also recorded: capable of binding to HLA-A2 on T2 cells	CLP-177>CLP-72>CLP-178>CLP-182
YLGRSAEPV (Human immunodeficiency virus type 1) [CLP-177]	bound to HLA-A2 on T2 cells; also recorded: able to bind and stabilize; also recorded: capable of binding to HLA-A2 on T2 cells	CLP-177>CLP-72>CLP-178>CLP-182
YLGRSAEPVPL (Human immunodeficiency virus type 1) [CLP-178]	bound to HLA-A2 on T2 cells; also recorded: able to bind and stabilize; also recorded: capable of binding to HLA-A2 on T2 cells	CLP-177>CLP-72>CLP-178>CLP-182
